Measurements from the supplement of paper PMC12042874.
± gives the uncertainty stated by the source.

Assay: amyloid nucleation score (Sup35N fusion, yeast selection) (log enrichment); library NNK1; higher = more nucleation; inactive = no reads after selection
Outline: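 The nucleation score is the log enrichment of output over input reads, calculated with DiMSum and centred on the mode score of non-aggregating sequences. Sequences with under 100 input reads were excluded. Reads came from Illumina sequencing of plasmid inserts from psi-negative yeast expressing Sup35N fused to peptides of 20 random codons, induced 24 hours with 100 μM copper sulfate and grown 7 days at 30°C without adenine and uracil.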

| Substance | amyloid nucleation score |
| --- | --- |
| IYCYSYYLCSFLCVYDISKG | -0.457 ± 0.79 |
| IYEMVGLTNVEFWYTKKYCS | -0.003 ± 0.18 |
| IYGDGNCIIFLMGQRP | 6.38 ± 0.085 |
| IYGGYEK | 0.626 ± 0.84 |
| IYKVEFLTCFLDEGGWSPKV | -0.692 ± 0.95 |
| IYNWH | 0.849 ± 0.66 |
| IYRAHYAIYSAF | -0.026 ± 0.64 |
| IYRSHRMPKSTRTLV | -1.16 ± 1.9 |
| IYRSMNRLVVQEGYAFIGGG | 2 ± 0.3 |
| IYVITVRPNVHNTLMHLIVT | 0.374 ± 0.73 |
| IYWCMM | 7.125 ± 0.057 |
| KAAGMGSCSYTMVNYTPDAG | 1.39 ± 0.23 |
| KAEVRVRARELAEGMGARGR | 0.693 ± 0.72 |
| KAEYSDLASFGCHGHEEGGG | 0.793 ± 1 |
| KAFIQTVLRNQVSWLANTPH | -0.745 ± 0.98 |
| KANFFTLRSMFWGPMN | 1.15 ± 0.64 |
| KASCVVLAMLWLVLALGEPG | 0.116 ± 0.81 |
| KCFAFRSLAHIASTCGWCLN | 2.4 ± 0.31 |
| KCIQGTGSLWD | -0.128 ± 0.3 |
| KCIWFMHDFCYMVLMR | -0.164 ± 0.72 |
| KDARLHFSWRL | 0.933 ± 0.6 |
| KDLLMKV | 0.507 ± 0.64 |
| KEILVGLPMGGVRGCGSSSG | 0.505 ± 1.2 |
| KESLLLTQCGYYMGSAKMVW | -1.03 ± 1.1 |
| KETSGYRFYRMANLP | -0.21 ± 1.2 |
| KEWFYYLVDELCGGLCNPVR | 0.39 ± 1.2 |

| Substance | amyloid nucleation score |
| --- | --- |
| KEYGVSL | -0.93 ± 0.55 |
| KEYNLLHDL | -0.691 ± 1.7 |
| KFILTVPMANSATYTFACLD | inactive |
| KFMVNVIV | 1.24 ± 0.22 |
| KFNDDRNGIATLQRHHIAGF | -0.969 ± 0.71 |
| KFSCGTFSLRHPT | 0.725 ± 0.52 |
| KFVYVVVMSMARACRNVPGH | 0.272 ± 0.39 |
| KFYYSLDVSSRCNFVLLEVE | 0.669 ± 0.65 |
| KGAGMQTTQCVCKVYKLSWA | 0.281 ± 0.24 |
| KGFVDNYVTVIVVWT | 1.64 ± 0.18 |
| KGGPRPQMC | -0.244 ± 0.27 |
| KGICRGRSLSVPESWAPFR | 0.133 ± 0.31 |
| KGMLLCYFPNKCPAWEAKCG | 5.17 ± 0.059 |
| KGRSNLIADFGDLFGGLYTY | -0.57 ± 0.37 |
| KGVCMTRHD | -0.136 ± 1.6 |
| KHRLGQSMVSVRHYRFWGRI | -0.437 ± 0.57 |
| KIILPVSGVKINMQAWSRSH | 4.07 ± 0.091 |
| KIKLMF | -0.416 ± 1.6 |
| KILRYSTTGSSELEWWNMRS | 0.069 ± 0.49 |
| KIRVDRFNIRSCDIGSDLCY | -1.07 ± 0.43 |
| KISVSTVLSLLFGI | 1.3 ± 0.76 |
| KKDTDRSIVFVSLYSPDSKA | -0.064 ± 0.5 |
| KKFEVSL | 0.159 ± 0.68 |
| KKFFRVLLSLSSMLVLCCFQ | -0.317 ± 1.4 |
| KKLNSCF | 0.533 ± 0.63 |
| KKVFFHKRVLSDARCKPVKS | -0.567 ± 0.41 |

| Substance | amyloid nucleation score |
| --- | --- |
| KKYLVNNYFLGFR | 0.127 ± 0.25 |
| KLAYKRSQMLTVVPRCSQGT | -0.39 ± 0.53 |
| KLDCMVDDICGTSGTVFLCL | 4.85 ± 0.061 |
| KLDGVVPDVYLSGRLPQAWL | 0.205 ± 0.86 |
| KLEGSARSGTTSRGSFSECV | 0.254 ± 0.38 |
| KLIPCLLVITINLGHKATLS | 0.482 ± 0.39 |
| KLNVFDLVNRAKVGHCGSSG | 0.026 ± 0.51 |
| KLRIRSWKVFTPNSLLVVAI | -0.893 ± 1.1 |
| KLYGTRFPQFSRSVNEYC | 0.111 ± 0.36 |
| KMLFGH | -0.085 ± 0.79 |
| KMLSMLTDRSFWLNHWSFFQ | -0.573 ± 1.4 |
| KMSNCWLF | -0.881 ± 0.55 |
| KNCAAFLHRHGFEVAQRGTC | -0.337 ± 0.78 |
| KNDDTRFR | 0.358 ± 0.31 |
| KNDGYIH | -0.561 ± 1.4 |
| KNVNAVR | 0.173 ± 0.79 |
| KPDRQVANFRDWFG | -0.244 ± 1.2 |
| KPWYFVISW | -0.007 ± 1.2 |
| KQSCWALSYVYMTSHVLSGG | 0.495 ± 1.4 |
| KRGNPMTHAFLWPVMSYVFR | 0.295 ± 0.97 |
| KRMVCDVCIDVMPSEFKQAG | 1.02 ± 0.76 |
| KRSANVYRLRCLGGKMLHVN | 3.34 ± 0.081 |
| KRWYTCYVYVFRICMRVLCR | 0.731 ± 0.38 |
| KSEDTSRFYTLMMSMYTQRF | 1.76 ± 0.14 |
| KSKRWELLPFEVRAARAVGQ | -0.024 ± 0.3 |
| KSLFNYCVFSDGL | 7.281 ± 0.051 |

| Substance | amyloid nucleation score |
| --- | --- |
| KSQDKRYLSIPGCVLSFWGE | 0.069 ± 0.46 |
| KSQLRQSTYPS | -0.358 ± 0.82 |
| KSSSV | -0.352 ± 0.6 |
| KSSTKGLISRGRFGYRVPSN | -0.215 ± 1.7 |
| KSTSQSYVIFFAQCFKYTTV | -0.592 ± 0.31 |
| KSYSMMMSMMGNRMWVKRLV | -0.02 ± 0.5 |
| KTCYLQ | -0.284 ± 1.1 |
| KTFYLWW | 3.04 ± 0.14 |
| KTGPAA | -0.17 ± 0.73 |
| KTRFMLVLKLKRDNDLKMRF | -0.288 ± 0.3 |
| KTWVYSRRRRCVRPGCCGDV | 3.3 ± 0.16 |
| KVGLLWGT | 0.197 ± 0.93 |
| KVKANILVFLTKLSMRPTKP | 1.86 ± 0.29 |
| KVPDALFVDRLLYQVISCIH | 3.47 ± 0.084 |
| KVVRAACCQKMFERVGVHGG | -0.842 ± 0.94 |
| KVYYYKPLIRNPTSFLITIL | 0.817 ± 0.47 |
| KWRNLSS | 0.631 ± 0.89 |
| KWVWDLMMVDSGLRLSSHVL | 0.026 ± 0.35 |
| KYEMRITVGRGYFSGRMHAC | 0.494 ± 0.78 |
| KYKVVI | -0.289 ± 0.24 |
| KYVIGVNAMEWWPTTTAI | 0.166 ± 1.6 |
| KYWGS | inactive |
| KYYMHLSSRDRRGAAWHLLF | -0.075 ± 0.29 |
| LACCFIVSWFNGSGSLTSRS | 7.497 ± 0.05 |
| LACSVAA | -0.493 ± 0.34 |
| LAGIVCEWWFGWVGDVQLAF | -0.604 ± 0.85 |

| Substance | amyloid nucleation score |
| --- | --- |
| LALHSNNQLFF | 0.839 ± 0.81 |
| LATNFCDTMRYVNGFRIAWC | 0.647 ± 0.66 |
| LAVTFQGIGFSYSILHITTY | -0.164 ± 0.44 |
| LAWVGVLW | -0.219 ± 1.1 |
| LCANNFHHVDKTGFAICNIH | 3.64 ± 0.051 |
| LCDFLNAYEINGKFSCGGTR | 0.084 ± 0.38 |
| LCEHKSRLVEDAKGGET | -0.043 ± 0.47 |
| LCFYDKYGPQYL | -0.59 ± 0.54 |
| LCGDHLFWLDVGDAVGVFLA | 0.176 ± 0.4 |
| LCGTMWAG | 0.62 ± 0.51 |
| LCKFYPAFTGTTCTNLLSVW | 0.321 ± 0.84 |
| LCLFFGLHLWVWMRKACCY | -0.205 ± 0.31 |
| LCLKF | 0.77 ± 0.97 |
| LCLLCNRYRWTN | 7.041 ± 0.048 |
| LCLRLCPLMVWSCVLERWVS | -1.78 ± 2.7 |
| LCSDIG | -0.09 ± 0.4 |
| LCSLTGLGYAMHVYVSLDVQ | 0.086 ± 0.5 |
| LCTLTVNYRSEHSYFYCINF | -0.319 ± 0.41 |
| LCWTIWV | -1.61 ± 2.4 |
| LDCYRLRCSLEAIECVISNE | -0.479 ± 0.21 |
| LDEVHESSIRSGNY | 3.12 ± 0.17 |
| LDHGEFTKYFRLTRCVSTCC | -0.339 ± 0.97 |
| LDMVANYLYSGSALILYCHL | -1.17 ± 2.1 |
| LDSAYSGGKCYTWFNIRRFV | 0.361 ± 0.86 |
| LDSCPAL | 0.47 ± 0.57 |
| LDVYCH | inactive |

| Substance | amyloid nucleation score |
| --- | --- |
| LEFGSSSGAIVMRGEDPCQP | 0.649 ± 0.52 |
| LEFVYNH | 1.44 ± 0.74 |
| LEITTHTSGIILMKGTPLRR | 3.14 ± 0.087 |
| LELTIRVRNSIVI | inactive |
| LEMGDPCQYCLDLFAGYPSG | 0.549 ± 0.55 |
| LEPNCVLSYTDSFVNQFVTL | 0.119 ± 0.3 |
| LEWGQPHPCSGFRKCWYSDV | 0.136 ± 0.58 |
| LFADYILCTCAGCGTGAWEM | -0.092 ± 1.1 |
| LFALNCDCM | 7.448 ± 0.053 |
| LFATYLAFKFY | -0.356 ± 1 |
| LFDARDSRFSCRYVMRRVWV | 0.195 ± 0.25 |
| LFEGEIIMK | inactive |
| LFFGSTLMDATFGYGDSDCN | 0.828 ± 0.62 |
| LFGEFRNEINAI | 0.031 ± 0.31 |
| LFHQLRITSVLSYDDKCEAR | 0.41 ± 0.2 |
| LFIRGMIDDKVSITNYVC | -0.546 ± 0.31 |
| LFLCGGDCYGKFLLCPCLVS | 0.144 ± 0.9 |
| LFNLFSRL | 0.335 ± 0.51 |
| LFSNPFRQAWH | -0.445 ± 0.71 |
| LFSPMSILRFLFMYIAKVMD | 0.213 ± 0.58 |
| LFTKNSIGGVFPCPPETARY | -1.18 ± 2.4 |
| LFTNMYSRVLTFLM | -0.441 ± 1.7 |
| LFTSVYL | -0.173 ± 0.53 |
| LFYTCRVDQGPVWGLLTKRR | 0.344 ± 0.77 |
| LGFMTCSP | inactive |
| LGGSDYVYANSFTTIGSSGV | -0.202 ± 0.21 |

| Substance | amyloid nucleation score |
| --- | --- |
| LGHGGVR | 0.566 ± 0.28 |
| LGLFCESYDEADCRTEDSAC | 0.254 ± 0.3 |
| LGMCFENSPVNLFWAIDSQM | 1.95 ± 0.37 |
| LGNNPTKHC | -0.171 ± 0.51 |
| LGRSGKMTT | -0.032 ± 0.54 |
| LGSAAISLIVLFLG | 2.64 ± 0.27 |
| LGSMSTWVDRLRVANQVVVC | 0.785 ± 0.77 |
| LGTMSVYRRPRSMMGCRDQG | 0.173 ± 0.26 |
| LGVKFVQDGTINKGHLKR | -0.543 ± 0.63 |
| LHETFVCR | -0.267 ± 0.58 |
| LHGPN | 0.705 ± 0.71 |
| LHLAAMM | -0.344 ± 1.1 |
| LHLNSCSQNITSLHYLPFWA | -0.113 ± 0.39 |
| LHRALYLDRQLISWGTVSQM | -0.332 ± 0.42 |
| LICVGCSCYSLKLSYNSSGL | 5.79 ± 0.058 |
| LIEVWYVLIQGECDPWVTHG | 1.07 ± 0.97 |
| LIIILVQQSEGACRILARD | 0.028 ± 0.34 |
| LILKYAVGRRQARVVKRNSR | -0.575 ± 1.4 |
| LIRHVLNLVL | -0.139 ± 0.77 |
| LISGKYLYSPTALLDHIL | 0.484 ± 0.68 |
| LITWCIVVAWCIIVTREA | 2.84 ± 0.12 |
